What was measured:
4-1BBL (Homo sapiens) = 4-1BBL (Homo sapiens) (UniProt P41273); conditions: cited from earlier work
[1] = target: mouse 4-1BB–Fc protein (mouse) (UniProt P20334); test: SPR; BIAcore X100; siglec-4–Fc or m4-1BB–Fc amine-coupled to CM5; h4-1BB–HIS or m-siglec-4–HIS flowed at 18 to 3000 nM in HBS-EP (10 mM Hepes pH 7.4, 150 mM NaCl, 3 mM EDTA, 0.05% P20); fitted with a 1:2 binding model
mouse 4-1BB–Fc protein (mouse), sequence (P20334 24-187): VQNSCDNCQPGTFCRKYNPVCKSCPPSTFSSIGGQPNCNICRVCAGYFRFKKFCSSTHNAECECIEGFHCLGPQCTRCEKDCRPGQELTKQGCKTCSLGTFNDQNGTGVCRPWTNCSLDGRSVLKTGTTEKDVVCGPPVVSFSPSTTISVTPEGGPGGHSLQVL

4-1BB, sequence (Q07011 24-255): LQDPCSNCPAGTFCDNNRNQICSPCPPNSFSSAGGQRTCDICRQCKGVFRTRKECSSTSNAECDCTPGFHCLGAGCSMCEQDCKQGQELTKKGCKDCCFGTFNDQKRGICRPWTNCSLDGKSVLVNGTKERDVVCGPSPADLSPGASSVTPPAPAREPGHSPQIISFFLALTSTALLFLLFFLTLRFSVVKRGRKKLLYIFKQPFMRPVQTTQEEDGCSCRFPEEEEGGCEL
4-1BBL (Homo sapiens), sequence (P41273 whole entry): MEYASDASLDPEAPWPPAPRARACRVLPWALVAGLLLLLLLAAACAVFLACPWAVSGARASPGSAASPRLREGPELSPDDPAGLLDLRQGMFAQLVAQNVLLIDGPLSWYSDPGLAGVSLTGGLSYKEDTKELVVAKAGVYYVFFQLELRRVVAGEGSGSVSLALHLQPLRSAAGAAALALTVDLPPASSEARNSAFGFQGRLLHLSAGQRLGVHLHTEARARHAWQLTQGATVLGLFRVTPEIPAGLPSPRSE

| Kd [1] | Substance | Kd (4-1BBL (Homo sapiens)) |
| --- | --- | --- |
|  | 4-1BB (from UniProt Q07011) | 0.0856 µM |
| 0.86 µM | mouse siglec-4–HIS protein (domain or fragment) |  |
